Laboratory results taken from US12679878B2, “CRF2 receptor agonists and their use in therapy” (SANOFI, priority 2020, dated 2026).
Starred links: 1 amine or outer side, 2 acyl side, 3 side chain; linkers in the order of their positions; H or OH if unused. Non-standard residues stand in square brackets, D forms with d. Groups on a side chain read outwards from the residue. No end group written: not given here. *: point of attachment. C18 diacid = O=C(O)CCCCCCCCCCCCCCCCC(=O)*; γGlu = O=C(O)[C@H](CCC(=O)[*:2])N[*:1]; Palmitoyl = CCCCCCCCCCCCCCCC(=O)*; AEEA = NCCOCCOCC(=O)O; Aib = CC(C)(N)C(=O)O

B1: peptide of SEQ ID NO: 28 (peptide)
peptide: IVLSLD[dV]PTKLK([γGlu-Palmitoyl])KKLLKQERKRKEREKAEKAARILERV-NH2
modifications: N-terminus assumed
SMILES: CCCCCCCCCCCCCCCC(=O)N[C@@H](CCC(=O)NCCCC[C@H](NC(=O)[C@H](CC(C)C)NC(=O)[C@H](CCCCN)NC(=O)[C@@H](NC(=O)[C@@H]1CCCN1C(=O)[C@H](NC(=O)[C@H](CC(=O)O)NC(=O)[C@H](CC(C)C)NC(=O)[C@H](CO)NC(=O)[C@H](CC(C)C)NC(=O)[C@@H](NC(=O)[C@@H](N)[C@@H](C)CC)C(C)C)C(C)C)[C@@H](C)O)C(=O)N[C@@H](CCCCN)C(=O)N[C@@H](CCCCN)C(=O)N[C@@H](CC(C)C)C(=O)N[C@@H](CC(C)C)C(=O)N[C@@H](CCCCN)C(=O)N[C@@H](CCC(N)=O)C(=O)N[C@@H](CCC(=O)O)C(=O)N[C@@H](CCCNC(=N)N)C(=O)N[C@@H](CCCCN)C(=O)N[C@@H](CCCNC(=N)N)C(=O)N[C@@H](CCCCN)C(=O)N[C@@H](CCC(=O)O)C(=O)N[C@@H](CCCNC(=N)N)C(=O)N[C@@H](CCC(=O)O)C(=O)N[C@@H](CCCCN)C(=O)N[C@@H](C)C(=O)N[C@@H](CCC(=O)O)C(=O)N[C@@H](CCCCN)C(=O)N[C@@H](C)C(=O)N[C@@H](C)C(=O)N[C@@H](CCCNC(=N)N)C(=O)N[C@H](C(=O)N[C@@H](CC(C)C)C(=O)N[C@@H](CCC(=O)O)C(=O)N[C@@H](CCCNC(=N)N)C(=O)N[C@H](C(N)=O)C(C)C)[C@@H](C)CC)C(=O)O
B2: peptide of SEQ ID NO: 26 (peptide)
peptide: IVLSLD[dV]PTKLK([γGlu-Palmitoyl])KKLLKQERKRKERE[Aib]AEKNARILERV-NH2
modifications: N-terminus assumed
SMILES: CCCCCCCCCCCCCCCC(=O)N[C@@H](CCC(=O)NCCCC[C@H](NC(=O)[C@H](CC(C)C)NC(=O)[C@H](CCCCN)NC(=O)[C@@H](NC(=O)[C@@H]1CCCN1C(=O)[C@H](NC(=O)[C@H](CC(=O)O)NC(=O)[C@H](CC(C)C)NC(=O)[C@H](CO)NC(=O)[C@H](CC(C)C)NC(=O)[C@@H](NC(=O)[C@@H](N)[C@@H](C)CC)C(C)C)C(C)C)[C@@H](C)O)C(=O)N[C@@H](CCCCN)C(=O)N[C@@H](CCCCN)C(=O)N[C@@H](CC(C)C)C(=O)N[C@@H](CC(C)C)C(=O)N[C@@H](CCCCN)C(=O)N[C@@H](CCC(N)=O)C(=O)N[C@@H](CCC(=O)O)C(=O)N[C@@H](CCCNC(=N)N)C(=O)N[C@@H](CCCCN)C(=O)N[C@@H](CCCNC(=N)N)C(=O)N[C@@H](CCCCN)C(=O)N[C@@H](CCC(=O)O)C(=O)N[C@@H](CCCNC(=N)N)C(=O)N[C@@H](CCC(=O)O)C(=O)NC(C)(C)C(=O)N[C@@H](C)C(=O)N[C@@H](CCC(=O)O)C(=O)N[C@@H](CCCCN)C(=O)N[C@@H](CC(N)=O)C(=O)N[C@@H](C)C(=O)N[C@@H](CCCNC(=N)N)C(=O)N[C@H](C(=O)N[C@@H](CC(C)C)C(=O)N[C@@H](CCC(=O)O)C(=O)N[C@@H](CCCNC(=N)N)C(=O)N[C@H](C(N)=O)C(C)C)[C@@H](C)CC)C(=O)O
B3: peptide of SEQ ID NO: 22 (peptide)
peptide: IVLSLDVPIKLK([AEEA-AEEA-γGlu-C18 diacid])QILLKQERQK[Aib]QRQKAEKNKQILAQV-NH2
modifications: N-terminus assumed
SMILES: CC[C@H](C)[C@H](N)C(=O)N[C@H](C(=O)N[C@@H](CC(C)C)C(=O)N[C@@H](CO)C(=O)N[C@@H](CC(C)C)C(=O)N[C@@H](CC(=O)O)C(=O)N[C@H](C(=O)N1CCC[C@H]1C(=O)N[C@H](C(=O)N[C@@H](CCCCN)C(=O)N[C@@H](CC(C)C)C(=O)N[C@@H](CCCCNC(=O)COCCOCCNC(=O)COCCOCCNC(=O)CC[C@H](NC(=O)CCCCCCCCCCCCCCCCC(=O)O)C(=O)O)C(=O)N[C@@H](CCC(N)=O)C(=O)N[C@H](C(=O)N[C@@H](CC(C)C)C(=O)N[C@@H](CC(C)C)C(=O)N[C@@H](CCCCN)C(=O)N[C@@H](CCC(N)=O)C(=O)N[C@@H](CCC(=O)O)C(=O)N[C@@H](CCCNC(=N)N)C(=O)N[C@@H](CCC(N)=O)C(=O)N[C@@H](CCCCN)C(=O)NC(C)(C)C(=O)N[C@@H](CCC(N)=O)C(=O)N[C@@H](CCCNC(=N)N)C(=O)N[C@@H](CCC(N)=O)C(=O)N[C@@H](CCCCN)C(=O)N[C@@H](C)C(=O)N[C@@H](CCC(=O)O)C(=O)N[C@@H](CCCCN)C(=O)N[C@@H](CC(N)=O)C(=O)N[C@@H](CCCCN)C(=O)N[C@@H](CCC(N)=O)C(=O)N[C@H](C(=O)N[C@@H](CC(C)C)C(=O)N[C@@H](C)C(=O)N[C@@H](CCC(N)=O)C(=O)N[C@H](C(N)=O)C(C)C)[C@@H](C)CC)[C@@H](C)CC)[C@@H](C)CC)C(C)C)C(C)C
B4: peptide of SEQ ID NO: 25 (peptide)
peptide: IVLSLD[dV]PTKLK([γGlu-Palmitoyl])KKLLKQERKRKEREKAEKNARILERV-NH2
modifications: N-terminus assumed
SMILES: CCCCCCCCCCCCCCCC(=O)N[C@@H](CCC(=O)NCCCC[C@H](NC(=O)[C@H](CC(C)C)NC(=O)[C@H](CCCCN)NC(=O)[C@@H](NC(=O)[C@@H]1CCCN1C(=O)[C@H](NC(=O)[C@H](CC(=O)O)NC(=O)[C@H](CC(C)C)NC(=O)[C@H](CO)NC(=O)[C@H](CC(C)C)NC(=O)[C@@H](NC(=O)[C@@H](N)[C@@H](C)CC)C(C)C)C(C)C)[C@@H](C)O)C(=O)N[C@@H](CCCCN)C(=O)N[C@@H](CCCCN)C(=O)N[C@@H](CC(C)C)C(=O)N[C@@H](CC(C)C)C(=O)N[C@@H](CCCCN)C(=O)N[C@@H](CCC(N)=O)C(=O)N[C@@H](CCC(=O)O)C(=O)N[C@@H](CCCNC(=N)N)C(=O)N[C@@H](CCCCN)C(=O)N[C@@H](CCCNC(=N)N)C(=O)N[C@@H](CCCCN)C(=O)N[C@@H](CCC(=O)O)C(=O)N[C@@H](CCCNC(=N)N)C(=O)N[C@@H](CCC(=O)O)C(=O)N[C@@H](CCCCN)C(=O)N[C@@H](C)C(=O)N[C@@H](CCC(=O)O)C(=O)N[C@@H](CCCCN)C(=O)N[C@@H](CC(N)=O)C(=O)N[C@@H](C)C(=O)N[C@@H](CCCNC(=N)N)C(=O)N[C@H](C(=O)N[C@@H](CC(C)C)C(=O)N[C@@H](CCC(=O)O)C(=O)N[C@@H](CCCNC(=N)N)C(=O)N[C@H](C(N)=O)C(C)C)[C@@H](C)CC)C(=O)O
B5: peptide of SEQ ID NO: 27 (peptide)
peptide: IVLSLD[dV]PTKLK([γGlu-Palmitoyl])KKLLKQERKRKEREQAEKNARILERV-NH2
modifications: N-terminus assumed
SMILES: CCCCCCCCCCCCCCCC(=O)N[C@@H](CCC(=O)NCCCC[C@H](NC(=O)[C@H](CC(C)C)NC(=O)[C@H](CCCCN)NC(=O)[C@@H](NC(=O)[C@@H]1CCCN1C(=O)[C@H](NC(=O)[C@H](CC(=O)O)NC(=O)[C@H](CC(C)C)NC(=O)[C@H](CO)NC(=O)[C@H](CC(C)C)NC(=O)[C@@H](NC(=O)[C@@H](N)[C@@H](C)CC)C(C)C)C(C)C)[C@@H](C)O)C(=O)N[C@@H](CCCCN)C(=O)N[C@@H](CCCCN)C(=O)N[C@@H](CC(C)C)C(=O)N[C@@H](CC(C)C)C(=O)N[C@@H](CCCCN)C(=O)N[C@@H](CCC(N)=O)C(=O)N[C@@H](CCC(=O)O)C(=O)N[C@@H](CCCNC(=N)N)C(=O)N[C@@H](CCCCN)C(=O)N[C@@H](CCCNC(=N)N)C(=O)N[C@@H](CCCCN)C(=O)N[C@@H](CCC(=O)O)C(=O)N[C@@H](CCCNC(=N)N)C(=O)N[C@@H](CCC(=O)O)C(=O)N[C@@H](CCC(N)=O)C(=O)N[C@@H](C)C(=O)N[C@@H](CCC(=O)O)C(=O)N[C@@H](CCCCN)C(=O)N[C@@H](CC(N)=O)C(=O)N[C@@H](C)C(=O)N[C@@H](CCCNC(=N)N)C(=O)N[C@H](C(=O)N[C@@H](CC(C)C)C(=O)N[C@@H](CCC(=O)O)C(=O)N[C@@H](CCCNC(=N)N)C(=O)N[C@H](C(N)=O)C(C)C)[C@@H](C)CC)C(=O)O
B6: peptide of SEQ ID NO: 29 (peptide)
peptide: IVLSLD[dV]PTKLK([γGlu-Palmitoyl])KKLLKQERKRKERE[Aib]AEKAARILERV-NH2
modifications: N-terminus assumed
SMILES: CCCCCCCCCCCCCCCC(=O)N[C@@H](CCC(=O)NCCCC[C@H](NC(=O)[C@H](CC(C)C)NC(=O)[C@H](CCCCN)NC(=O)[C@@H](NC(=O)[C@@H]1CCCN1C(=O)[C@H](NC(=O)[C@H](CC(=O)O)NC(=O)[C@H](CC(C)C)NC(=O)[C@H](CO)NC(=O)[C@H](CC(C)C)NC(=O)[C@@H](NC(=O)[C@@H](N)[C@@H](C)CC)C(C)C)C(C)C)[C@@H](C)O)C(=O)N[C@@H](CCCCN)C(=O)N[C@@H](CCCCN)C(=O)N[C@@H](CC(C)C)C(=O)N[C@@H](CC(C)C)C(=O)N[C@@H](CCCCN)C(=O)N[C@@H](CCC(N)=O)C(=O)N[C@@H](CCC(=O)O)C(=O)N[C@@H](CCCNC(=N)N)C(=O)N[C@@H](CCCCN)C(=O)N[C@@H](CCCNC(=N)N)C(=O)N[C@@H](CCCCN)C(=O)N[C@@H](CCC(=O)O)C(=O)N[C@@H](CCCNC(=N)N)C(=O)N[C@@H](CCC(=O)O)C(=O)NC(C)(C)C(=O)N[C@@H](C)C(=O)N[C@@H](CCC(=O)O)C(=O)N[C@@H](CCCCN)C(=O)N[C@@H](C)C(=O)N[C@@H](C)C(=O)N[C@@H](CCCNC(=N)N)C(=O)N[C@H](C(=O)N[C@@H](CC(C)C)C(=O)N[C@@H](CCC(=O)O)C(=O)N[C@@H](CCCNC(=N)N)C(=O)N[C@H](C(N)=O)C(C)C)[C@@H](C)CC)C(=O)O

These binders were tested against T1, CRF1R receptor (anti-target) (UniProt P34998 24-415, limits assumed) (assay: cell-based or functional assay).
T1 sequence (looked up): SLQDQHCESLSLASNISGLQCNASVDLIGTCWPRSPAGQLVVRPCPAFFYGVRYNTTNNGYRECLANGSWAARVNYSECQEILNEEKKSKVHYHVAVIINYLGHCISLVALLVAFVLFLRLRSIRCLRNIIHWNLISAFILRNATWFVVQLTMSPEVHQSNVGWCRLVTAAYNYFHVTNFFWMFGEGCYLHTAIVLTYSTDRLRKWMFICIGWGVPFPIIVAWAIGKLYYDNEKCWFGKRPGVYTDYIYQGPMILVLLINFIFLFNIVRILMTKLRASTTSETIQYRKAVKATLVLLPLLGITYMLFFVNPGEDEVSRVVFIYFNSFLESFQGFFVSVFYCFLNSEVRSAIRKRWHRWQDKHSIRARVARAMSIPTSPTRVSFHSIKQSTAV

Which “EC50 [nM] 0% HSA (cAMP, HTRF)” value does the source give for B1 here?
Its value is greater than 100 nM.

And the “Emax (%) (100% = Sauvagine at 100 nM)” value?
Its value is 8.4%.

With B2 as the binder, how does the “EC50 [nM] 0% HSA (cAMP, HTRF)” value read?
Its value is greater than 100 nM.

And the “Emax (%) (100% = Sauvagine at 100 nM)” value?
Its value is 0.6%.

How did the “EC50 [nM] 0% HSA (cAMP, HTRF)” value turn out when B3 was run?
Its value is greater than 100 nM.

And the “Emax (%) (100% = Sauvagine at 100 nM)” value?
Its value is 1.2%.

With B4 as the binder, how does the “EC50 [nM] 0% HSA (cAMP, HTRF)” value read?
Its value is greater than 100 nM.

And the “Emax (%) (100% = Sauvagine at 100 nM)” value?
Its value is 0.1%.

Which results are given for B5?
EC50 [nM] 0% HSA (cAMP, HTRF): > 100 nM; Emax (%) (100% = Sauvagine at 100 nM): 34.2%

Which “EC50 [nM] 0% HSA (cAMP, HTRF)” value does the source give for B6 here?
Its value is greater than 100 nM.

What about the “Emax (%) (100% = Sauvagine at 100 nM)” value of the same binder?
Its value is 18.4%.
